According to patent US20240191241, “APTAMERS FOR USE IN THE […] OF CORONAVIRIDAE INFECTIONS” (Berlin Cures GmbH, published 2024):

T1: SARS-CoV-2 spike receptor-binding domain control peptide NRKRISN (SARS-CoV-2)
T1 chain: NRKRISN

T2: SARS-CoV-2 RNA-dependent RNA polymerase peptide HRFYRLAN (SARS-CoV-2)
T2 chain: HRFYRLAN

T3: SARS-CoV-2 spike receptor-binding domain peptide No. 4 (YRLFRK) (SARS-CoV-2)
T3 chain: YRLFRK

T4: SARS-CoV-2 RNA-dependent RNA polymerase peptide LYRNRDV (SARS-CoV-2)
T4 chain: LYRNRDV


Legend:
[1] = biological target: T1, SARS-CoV-2 spike receptor-binding …; test: NMR: nearly complete absence of quadruplex formation; also used as control in ITC (50 mM sodium phosphate, 150 mM NaCl, pH 7.16, 25 C); conditions: tags: isolated peptide; G4
[2] = biological target: T2, SARS-CoV-2 RNA-dependent RNA polymerase …; test: ITC; 1:1 stoichiometry; 50 mM sodium phosphate, 150 mM NaCl, pH 7.06, 25 C; quadruplex induction also by NMR; Kd not given; conditions: tags: isolated peptide; G4
[3] = biological target: T3, SARS-CoV-2 spike receptor-binding …; test: NMR; quadruplex imino signals induced by peptide; 1 mM each, 90/10 H2O/D2O, 298 K, no additives; conditions: tags: isolated peptide; G4
[4] = biological target: T4, SARS-CoV-2 RNA-dependent RNA polymerase …; test: NMR; quadruplex fold induced by peptide; 90/10 H2O/D2O, 298 K; conditions: tags: isolated peptide; G4
Thrombin = Thrombin (Homo sapiens, UniProt P00734;P00734 P00734:328-363,P00734:364-622); test: ELONA

| Binder | binding result [1] | binding result [2] | binding result [3] | binding result [4] | binding result (Thrombin) |
| --- | --- | --- | --- | --- | --- |
| GGTTGGTGTGGTTGG (ssDNA) [BC007] | no binding | binds | binds | binds | – |
| GGTTGGTGTGGTTGG (ssDNA) [BC007 5'-biotinylated] | – | – | – | – | binds |
